Legend:
[1] = in vivo; set-up: species or system BALB/c mice; details: female, BALB/c, mouse, iv, 5.55 MBq, total radioactivity
Procedure: A few BALB/c mice that previously injected with spontaneous Murine Mammary Adenocarcinoma Cells (MMAC) which has been histopathologically approved for invasive ductal carcinoma, grade II/III, ([18]) were provided from Pasteur Institute, Tehran, Iran. These mice breast tumor model were used for development of the tumor allograft in other healthy Balb/c mice. For this purpose, the tumor allograft development was performed according to the previously reported procedure ([19]). Adenocarcinoma breast tumors of the mice were brought out and divided to 2–3 mm^3 segments. These segments were implanted percutaneously in the right side of the flank of inbred female BALB/c mice (16–25 g, 6–8 weeks old, Pasteur Institute, Tehran, Iran). 24-31 days post implantation, the tumor volume reached 70–80 mm^3. 5.55 MBq of final ^68Ga-DOTATOC solution was injected intravenously into the mice through their tail veins. Static PET images were captured for 10 min with three sets of emission images starting 30, 60 and 120 min post injection. In addition, PET emission scans were preceded by CT scans performed for anatomical reference and attenuation correction (spatial resolution 1.25 mm, 80 kV, 150 mAs) with a total CT scanning time of 20 s. Reconstruction was performed using the iterative algorithm with attenuation correction. The reconstruction settings were 4 iterations and 21 subsets to a 256×256 matrix, with a post-filtering of 2 mm. Transmission data were reconstructed within a matrix of equal size by means of filtered back-projection, yielding a co-registered image set. The reconstructed emission images were reformatted into coronal, sagittal and maximum intensity projection (MIP) image sets. Maximum, average and minimum standardized uptake values (SUV) for the observable organs in the images were calculated based on the region of interest (ROI) and according to Eq. 1: where C is the tissue radioactivity concentration (kBq/mL), I is the decay-corrected amount of injected radiolabeled complex [kBq], and w is the weight (g).

[2] = tested on: BALB/c mice with adenocarcinoma breast cancer; experiment: in vivo; details: mouse, iv
Procedure: (§1) A few BALB/c mice that previously injected with spontaneous Murine Mammary Adenocarcinoma Cells (MMAC) which has been histopathologically approved for invasive ductal carcinoma, grade II/III, ([18]) were provided from Pasteur Institute, Tehran, Iran. These mice breast tumor model were used for development of the tumor allograft in other healthy Balb/c mice. For this purpose, the tumor allograft development was performed according to the previously reported procedure ([19]). Adenocarcinoma breast tumors of the mice were brought out and divided to 2–3 mm^3 segments. These segments were implanted percutaneously in the right side of the flank of inbred female BALB/c mice (16–25 g, 6–8 weeks old, Pasteur Institute, Tehran, Iran). 24-31 days post implantation, the tumor volume reached 70–80 mm^3. 100 μL of the radiolabeled complex with approximately 5.55 MBq radioactivity was injected intravenously into the BALB/c mice with adenocarcinoma breast cancer through their tail vein. The total amount of radioactivity injected into each animal was measured by counting the 1-mL syringe before and after injection in a dose calibrator with the fixed geometry. Biodistribution of the complex among tissues was determined by sacrificing the BALB/c mice at each selected time (15, 30 and 60 m) after injection using the animal care protocols. Blood samples were rapidly taken after scarification. The tissues (heart, kidneys, spleen, stomach, intestine, lung, liver, skin, bone, muscle, adrenal, pancreas and tumor) were weighed and rinsed with normal saline and their activities were determined with a p-type coaxial HPGe detector coupled with a multichannel analyzer. The percentage of injected dose per gram (%ID/g) for different organs was calculated by dividing the activity amount of each tissue (A) to the decay-corrected injected activity and the mass of each organ. Four […] were considered for each time interval. All values were expressed as mean ± standard deviation (Mean±SD) and the data were compared using Student’s T-test. P values of < 0.05 were considered statistically significant.

[3] = in vivo; set-up: species or system BALB/c mice; details: female, BALB/c, mouse, iv, 5.55 MBq, total radioactivity; remark: listed apart in the source
Procedure: as §1

What does the source list for C[C@@H](O)[C@@H]1NC(=O)[C@H](CCCCN)NC(=O)[C@@H](Cc2c[nH]c3ccccc23)NC(=O)[C@H](Cc2ccc(O)cc2)NC(=O)[C@@H](NC(=O)[C@@H](Cc2ccccc2)NC(=O)CN2CCN(CC(=O)O)CCN(CC(=O)O)CCN(CC(=O)O)CC2)CSSC[C@@H](C(=O)N[C@H](CO)[C@@H](C)O)NC1=O [^68Ga-DOTATOC, metal not drawn]?
SUV at 0.5 h [1]: 0.66 SUV; SUV at 1 h [1]: 0.28 SUV; SUV at 2 h [1]: 0.18 SUV; blood clearance (in words) [2]: fast blood clearance; tissue to tissue ratio at 0.25 h ([3]; Tumor/blood ratio): 2.38; tissue to tissue ratio at 0.5 h ([3]; Tumor/blood ratio): 3.37; tissue to tissue ratio at 1 h ([3]; Tumor/blood ratio): 9.92; tissue to tissue ratio at 0.25 h ([3]; Tumor/muscle ratio): 18.7; tissue to tissue ratio at 0.5 h ([3]; Tumor/muscle ratio): 20.8; tissue to tissue ratio at 1 h ([3]; Tumor/muscle ratio): 19.8

Reference: PMC5765332, “Evaluation of the Possible Utilization of ^68Ga-DOTATOC in Diagnosis of Adenocarcinoma Breast Cancer” (Asia Oceania Journal of Nuclear Medicine and Biology, 2018)
